Results taken from patent publication US20110256132A1 (published 2011).
Residue numbers refer to the chain shown, from its start. Numbers in names are those of the source. Read-outs that look alike come from different tables or passages of the source.

B1: H1L2 (antibody, human IgG1, kappa)
heavy: not shown
light: DIQMTQSPSSLSASVGDRVTITCKASQDINSYLSWFQQKPGKAPKSLIYRANRLVDGVPSKFSGSGSGTDYTLTISSLQPEDFATYYCLQCDEFPLTFGQGTKLEIKRTVAAPSVFIFPPSDEQLKSGTASVVCLLNNFYPREAKVQWKVDNALQSGNSQESVTEQDSKDSTYSLSSTLTLSKADYEKHKVYACEVTHQGLSSPVTKSFNRGEC
notes: Humanised, human IgG1 wild type/kappa
B2: H2L2-C91S_P100B_I (antibody, human IgG1, kappa, V domains shown)
VH: QVQLVQSGAEVKKPGASVKVSCKASGYSFTGYFMHWVRQAPGQGLEWMGNIYPYNGVSNYNQRFKARVTMTTDTSTSTAYMELRSLRSDDTAVYYCARRYYYGTGIADWYFDVWGQGTLVTVSS
VL: DIQMTQSPSSLSASVGDRVTITCKASQDINSYLSWFQQKPGKAPKSLIYRANRLVDGVPSKFSGSGSGTDYTLTISSLQPEDFATYYCLQSDEFPLTFGQGTKLEIKR
B3: H2L2-C91S_P100B_F (antibody, human IgG1, kappa, V domains shown)
VH: B2 VH with I106F
VL: B2 VL
B4: H2L1 (antibody, human IgG1, kappa)
heavy: not shown
light: B1 light with G16R, Y71F
notes: as for B1
B5: H2L2 N54Q & C91S (H2L2-N54Q-C91S) (antibody, human IgG1, kappa, V domains shown)
VH: B2 VH with N55Q, I106P
VL: B2 VL
B6: H2L0 (antibody, human IgG1, kappa)
heavy: not shown
light: B1 light with Y71F
notes: as for B1
B7: H2L2-C91S_G99D (antibody, human IgG1, kappa, name in Kabat numbering, V domains shown)
VH: B2 VH with G103D, I106P
VL: B2 VL
B8: H2L2-C91S_F100G_Y (antibody, human IgG1, kappa)
heavy: not shown
light: B1 light with C91S
notes: Fc not disabled
B9: H2L3 (antibody, human IgG1, kappa)
heavy: not shown
light: B1 light with Y71F, Q100A
notes: as for B1
B10: H2L2-C91S_V102N (antibody, human IgG1, kappa, name in Kabat numbering, V domains shown)
VH: B2 VH with I106P, V113N
VL: B2 VL
B11: H2L2-C91S_G99S (antibody, human IgG1, kappa, name in Kabat numbering, V domains shown)
VH: B2 VH with G103S, I106P
VL: B2 VL
B12: H2L2-C91S_G100A_K (antibody, human IgG1, kappa, V domains shown)
VH: B2 VH with G105K, I106P
VL: B2 VL
B13: H2L2-C91S_Y96L (antibody, human IgG1, kappa, name in Kabat numbering, V domains shown)
VH: B2 VH with Y100L, I106P
VL: B2 VL
B14: H2L2-C91S_V102S (antibody, human IgG1, kappa, name in Kabat numbering, V domains shown)
VH: B2 VH with I106P, V113S
VL: B2 VL

Assays:
[1] = target: T1, mature myostatin (recombinant, dimeric) (mouse polyprotein used for in-house …, UniProt O08689 268-376); test: BIAcore, high density myostatin surface, antibody analyte, 1:1 model (poor fits)
T1 construct: also called GDF-8; recombinant myostatin
T1 sequence: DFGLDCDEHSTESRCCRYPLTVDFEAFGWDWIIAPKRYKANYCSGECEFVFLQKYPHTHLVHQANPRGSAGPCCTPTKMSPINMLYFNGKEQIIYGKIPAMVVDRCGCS
Description: (§1) Purified H0L0, H1L2 and H2L2 bound recombinant myostatin by BIAcore™ Recombinant myostatin was immobilised at three different densities (low, medium and high, to give R-max values of approximately 35, 120 and 350 RU's respectively) onto a BIAcore™ chip. Antibodies were passed over at 256, 64, 16, 4 and 1 nM. 0 nM antibody was used for double referencing and data was fitted to the 1:1 model.

[2] = target: T1, mature myostatin (recombinant, dimeric); test: BIAcore, low density myostatin surface, antibody analyte, 1:1 model
Description: as §1

[3] = target: T1, mature myostatin (recombinant, dimeric); test: BIAcore, medium density myostatin surface, antibody analyte, 1:1 model (poor fits)
Description: as §1

[4] = target: T1, mature myostatin (recombinant, dimeric); test: competition ELISA, biotinylated myostatin on streptavidin, competitor 10B3
Description: (§2) A 96-well ELISA plate was coated at 4° C. overnight with 2.5 μg/ml polyclonal Antibody to Myostatin (R&D Systems AF788). This plate was then washed 3-times in wash buffer (PBS, 0.1% Tween-20) and blocked for 1 hour at room temperature with block solution (PBS, 0.1% Tween-20+1% bovine serum albumin [BSA]). Then, myostatin was added at 1 μg/ml in block buffer during 1 hour followed by 3-times in wash buffer. Antibodies were then titrated out to a suitable concentration range (approximately 10 to 0.01 μg/ml), added to the plate and incubated for 1 hour at room temperature. The plate was then washed 3-times in wash buffer. An anti-human kappa light chain HRP-conjugated antibody (Sigma A7164, used according to the manufacturer's instructions) was used to detect binding of humanized or chimeric antibodies, such as 10B3 chimera (HcLc) or H0L0. The plate was then washed 3-times in wash buffer and developed with an OPD substrate (according to the manufacturer's instructions) and read at 490 nm on a plate reader.
(§3) The protocol set out in 6.7 was used but the plates were initially coated at 4° C. overnight with 5 μg/ml of streptavidin. Biotinylated myostatin was added at 0.3 μg/ml block buffer during 1 hour followed by 3-times in wash buffer. 10B3 (final concentration of 0.2 μg/ml) was added into each well and mixed with antibodies titrated out to a suitable concentration range (approximately 10 to 0.01 μg/ml). An anti-mouse HRP-conjugated antibody (DAKO P0260, used according to the manufacturer's instructions) was used to detect binding of the 10B3 antibody.

[5] = target: T1, mature myostatin (recombinant, dimeric); test: competition ELISA, directly coated myostatin, competitor 10B3
Description: as §2
as §3, with “0.2” for “5”, “of” for “of streptavidin. Biotinylated”, “(recombinant in-house, see 1.1 above).” for “was added at 0.3 μg/ml block buffer during 1 hour followed by 3-times in wash buffer.”, “0.3” for “0.2”

[6] = target: T1, mature myostatin (recombinant, dimeric); test: cell-based or functional assay
[7] = target: T1, mature myostatin (recombinant, dimeric); test: competition ELISA, myostatin captured by polyclonal antibody, competitor 10B3
Description: as §2
The protocol set out in 6.7 was used with the addition of 10B3 (final concentration of […]) to each well and mixed with the antibodies titrated out to a suitable concentration range (approximately 10 to 0.01 μg/ml). An anti-mouse HRP-conjugated antibody (DAKO P0260, used according to the manufacturer's instructions) was used to detect binding of the 10B3 antibody.

[8] = target: T1, mature myostatin (recombinant, dimeric); test: myostatin binding ELISA, 10 ng/well recombinant myostatin coated, CHOK1 supernatants, anti-human kappa HRP, OPD, A490 (Examples 4.1, 4.2)
Description: The myostatin binding ELISA was carried out approximately according to this protocol. A 96-well ELISA plate was coated at 4° C. overnight with 10 ng/well recombinant myostatin. This plate was then washed 3-times in wash buffer (PBS, 0.1% Tween-20). The wells were blocked for 1 hour at room temperature with block solution (PBS, 0.1% Tween-20+1% bovine serum albumin [BSA]), before washing 3-times in wash buffer. Antibodies were then titrated out to a suitable concentration range (approximately 100 to 0.001 μg/ml), added to the plate and incubated for 1 hour at room temperature. The plate was then washed 3-times in wash buffer. An anti-mouse IgG HRP-conjugated antibody (P0260 by Dako, this reagent was used according to the manufacturer's instructions) was used to detect binding of mouse antibodies, such as 10B3. An anti-human kappa light chain HRP-conjugated antibody (A7164 by Sigma Aldridge, this reagent was used according to the manufacturer's instructions) was used to detect binding of humanized or chimeric antibodies, such as 10B3 chimera or H0L0. The plate was then washed 3-times in wash buffer and developed with an OPD substrate (from Sigma, used according to the manufacturer's instructions) and read at 490 nm on a plate reader.

[9] = target: T1, mature myostatin (recombinant, dimeric); test: BIAcore, low density myostatin surface, methods as in 4.3
[10] = target: T1, mature myostatin (recombinant, dimeric); test: cell-based or functional assay; remark: listed apart in the source
[11] = target: T1, mature myostatin (recombinant, dimeric); test: BIAcore T100 full kinetics, high density myostatin surface, Bivalent model
Description: The CDRH3 variants were passed over all three surfaces at 256 nM, 64 nM, 16 nM, 4 nM, 1 nM with a buffer injection (i.e. 0 nM) used for double referencing, regeneration was using 100 mM phosphoric acid. The data was fitted to the Bivalent model inherent to the T100 Biacore machine and was run using HBS-EP at 25° C.

[12] = target: T1, mature myostatin (recombinant, dimeric); test: cell-based or functional assay; remark: listed apart in the source

Row | Binder | ranking order top (1) to bottom (5), myostatin competition ELISA [4] | ranking order top (1) to bottom (5), myostatin competition ELISA [5] | Mean IC50, A204 in vitro activity assay (5 nM myostatin) [6] [nM] | ranking order top (1) to bottom (5), myostatin competition ELISA [7] | fold of affinity against F100G_Y [11] [fold] | further results
1 | B1 | – | – | – | – | – | Kd [1]: 2.42 nM; koff [1]: 0.000223 s⁻¹; kon [1]: 92200 M⁻¹ s⁻¹; Kd [2]: 15.1 nM; koff [2]: 0.00332 s⁻¹; kon [2]: 220000 M⁻¹ s⁻¹; Kd [3]: 5.06 nM; koff [3]: 0.000693 s⁻¹; kon [3]: 137000 M⁻¹ s⁻¹
2 | B2 | 3 | 5 | 4.53 | – | – | –
3 | B3 | – | 1 | 4.24 | 1 | – | –
4 | B4 | – | – | – | – | – | binding result [8]: binds
5 | B5 | – | – | – | – | – | Kd [9]: 33.3 nM; Mean IC50, A204 in vitro activity assay [10]: 10.4 nM
6 | B6 | – | – | – | – | – | binding result [8]: binds
7 | B7 | – | – | – | 5 | ≤ 2 | –
8 | B8 | 2 | 2 | 3.64 | 4 | – | Mean IC50, A204 in vitro activity assay [12]: 11.1 nM
9 | B9 | – | – | – | – | – | binding result [8]: binds
10 | B10 | 4 | 3 | 5.51 | 2 | ≤ 2 | –
11 | B11 | – | – | – | – | ≤ 2 | –
12 | B12 | – | – | – | – | ≤ 2 | –
13 | B13 | 5 | – | – | – | ≤ 2 | –
14 | B14 | 1 | 4 | 4.22 | 3 | ≤ 2 | –
